# Laboratory results as given in CN116284408A (SUNSHINE GUOJIAN PHARMACEUTICAL SHANGHAI CO LTD, dated 2023).
# How the values were obtained:
# [1] = molecular target: MUC17 on LS174T colorectal cancer cells (human, UniProt Q685J3 26-4493); assay: flow cytometry on LS174T cells, murine antibody titrated; design: Top: unit not given here
# 人MUC17-Fc蛋白 [2] = molecular target: T1, 人MUC17-Fc蛋白 (human, UniProt Q685J3 4131-4390); assay: ELISA, MUC17-Fc coated, murine antibody titrated
# T1 construct: range 4131-4390; No linker is described; also called MUC17抗原; not shown: C-terminal Fc tag
# 人MUC17-Fc蛋白 [3] = molecular target: T1, 人MUC17-Fc蛋白; assay: ELISA, coated MUC17 antigen, chimeric antibody titrated
# [4] = molecular target: T2, MUC17 on LS174T colorectal cancer cells (human, UniProt Q685J3 26-4493); assay: flow cytometry on LS174T cells, chimeric antibody titrated
# 人MUC17-Fc蛋白 [5] = molecular target: T1, 人MUC17-Fc蛋白; assay: ELISA, coated MUC17 antigen, antibody titrated
# [6] = molecular target: T2, MUC17 on LS174T colorectal cancer cells; assay: flow cytometry on LS174T cells, murine antibody titrated; design: Top: unit not given here; remark: listed apart in the source
# [7] = molecular target: T2, MUC17 on LS174T colorectal cancer cells; assay: flow cytometry on LS174T cells
Binder,EC50 [1],Top [1],EC50 (人MUC17-Fc蛋白 [2]),Top (人MUC17-Fc蛋白 [2]),EC50 (人MUC17-Fc蛋白 [3]),EC50 [4],EC50 (人MUC17-Fc蛋白 [5]),EC50 [6],EC50 [7]
"56E8 (antibody, V domains shown) VH: QVQLKESGPGLVAPSQSLSITCTVSGFSLTAYGVHWVRQPPGKGLEWLGGIWAGGSTKSNSALMSSLSISKDNSKSQVFLKMNSLQTDDSAMYYCARALFYGYFDVWGAGTTVTVSS VL: DIVMTQSQKFMSTSVGDRVSVTCKASQSVDTNVAWYQQRPGQSPEALIFSASYRYSGVPDRFTGSGSGTDFTLTISNVQSEDLAEYFCQQYNVYPYTFGGGTNLEIK",0.11 µg/mL,296,0.0276 µg/mL,1.97 OD450,,,,,
"11C8 (antibody, V domains shown) VH: QVQLKESGPGLVAPSQSLSITCTVSGFSLTAYGVHWVRQPPGKGLEWLGGIWAGGSTQSNSALMSRLSISKDSSKSQVFLRMNSLQTDDSAMYYCARALFYGNFDVWGAGTTVTVSS VL: DIVMTQSQKFMSTSVGDRVSVTCKASQSVDTSVAWYQQRPGQSPEALIFSASYRYSGVPDRFTGSGSGTDFTLTINNVQSEDLAEYFCQQYNSYPYTFGGGTNLEIK",0.87 µg/mL,469,0.108 µg/mL,2.25 OD450,,,,,
"ch-27A3 (antibody, human IgG1, kappa, V domains shown, also called 嵌合抗体ch-27A3) VH: QVQLQQPGAELVRPGASVKLSCKASGYSFTIYWMHWVKQRPGQGLEWIGMSHPSDSESRLNQKFKDKATLTVDKSSSTAYMQLSSPTSEDSAVYYCSRPYYGSSAWFADWGQGTLVTVSA VL: DIVMTQSPSSLAMSVGQKVTMSCKSSQSLLNSSNQKNYLAWYQQKPGQSPKLLIYFASTRESGVPDRFIGSGSGTDFTLSISSVQAEDLADYFCQQHYSFPLTFGAGTKLELRR",,,,,0.0785 nM,0.0435 nM,0.0785 nM,,
"27A3 (antibody, V domains shown, Mouse monoclonal antibody from a hybridoma, purified on Protein G; also called 鼠源抗体27A3; 杂交瘤抗体27A3) VH: QVQLQQPGAELVRPGASVKLSCKASGYSFTIYWMHWVKQRPGQGLEWIGMSHPSDSESRLNQKFKDKATLTVDKSSSTAYMQLSSPTSEDSAVYYCSRPYYGSSAWFADWGQGTLVTVSA VL: DIVMTQSPSSLAMSVGQKVTMSCKSSQSLLNSSNQKNYLAWYQQKPGQSPKLLIYFASTRESGVPDRFIGSGSGTDFTLSISSVQAEDLADYFCQQHYSFPLTFGAGTKLELR",,,0.0202 µg/mL,,,,,0.00656 µg/mL,
"ch-19E11 (antibody, human IgG1, kappa, V domains shown, also called 嵌合抗体ch-19E11) VH: EVQLQQSGPELEKPGASVKISCKASGFSFTGYNMNWVKQSNGKSLEWIGNIDPYYGGTTYNQKFKGKATLTVDISSSTAHMELKSLTSEDSAVYFCARSVTTVGYPMDYWGQGTSVTVSS VL: DIVMTQSPSSLAMSVGQKVTMNCKSSQSLLNSYNHKNCLAWYQQKPGQSPKLLISFASARESGVPDRFIGSGSGTDFTLTISSVQAEDLADYFCHQHYTSPLTFGAGTKLELKR",,,,,0.14 nM,,0.14 nM,,
"19E11 (antibody, V domains shown, Mouse monoclonal antibody from a hybridoma, purified on Protein G; also called 鼠源抗体19E11; 杂交瘤抗体19E11) VH: EVQLQQSGPELEKPGASVKISCKASGFSFTGYNMNWVKQSNGKSLEWIGNIDPYYGGTTYNQKFKGKATLTVDISSSTAHMELKSLTSEDSAVYFCARSVTTVGYPMDYWGQGTSVTVSS VL: DIVMTQSPSSLAMSVGQKVTMNCKSSQSLLNSYNHKNCLAWYQQKPGQSPKLLISFASARESGVPDRFIGSGSGTDFTLTISSVQAEDLADYFCHQHYTSPLTFGAGTKLELK",,,0.0376 µg/mL,,,,,0.024 µg/mL,
"hu-27A3 (antibody, human IgG1, kappa, V domains shown, Humanized IgG1/kappa, made in HEK-293E cells; also called 27A3人源化抗体; 人源化后的27A3) VH: QVQLVQSGAEVKKPGASVKVSCKASGYSFTIYWMHWVRQAPGQGLEWIGMSHPSDSESRLNQKFKDRATLTVDKSTSTAYMELSSLRSEDTAVYYCSRPYYGSSAWFADWGQGTLVTVSA VL: DIVMTQSPDSLAVSLGERATINCKSSQSLLNSSNQKNYLAWYQQKPGQSPKLLIYFASTRESGVPDRFSGSGSGTDFTLTISSLQAEDVAVYYCQQHYSFPLTFGAGTKLELRR",,,,,,,0.0766 nM,,0.03 nM
"8H2 (antibody, V domains shown) VH: EVNLVESGGGLVKPGGSLKLSCAASGFAFSNYDMSWVRQTPEKRLEWVATISGGGSYTYYPDNVKGRFTISRDNAMNTLYLQMSSLRSEDTALYYCASVNWGFPYWGQGTLVTVSA VL: DIVMSQSPSSLAVSIGEKVTMSCKSSQSLLYSRNQKNYLAWYQQKPGQSPILLIYWTSTRESGVPDRFTGSGSGTDFTLTISGVKAEDLAVYYCQQYYTSPWTFGGGTRLEIK",0.164 µg/mL,445,0.0556 µg/mL,2.74 OD450,,,,,

# Next, values leading:
EC50 [1],Top [1],EC50 (人MUC17-Fc蛋白 [2]),Top (人MUC17-Fc蛋白 [2]),EC50 (人MUC17-Fc蛋白 [3]),EC50 [4],EC50 (人MUC17-Fc蛋白 [5]),EC50 [6],EC50 [7],Binder
0.542 µg/mL,500,0.0813 µg/mL,2.64 OD450,,,,,,"50A5 (antibody, V domains shown) VH: QVQLKESGPGLVAPSQSLSITCTVSGFSLTAYGVHWVRQPPGKGLEWLGGIWAGGNTQSHSALMSRLTISKDISKSQVFLRMNSLQTDDSAMYYCARALFYGNFDVWGAGTTVTVSS VL: DIVMTQSQRFMSTSVGDRVSVTCKASQSVDTSVAWYQQRPGQSPEALIFSASYRYSGVPDRFTGSGSGTDFTLTISNVQSEDLAEYFCQQYNSYPYTFGGGTNLEIK"
0.395 µg/mL,460,0.0623 µg/mL,2.88 OD450,,,,,,"23F6 (antibody, V domains shown) VH: QVQLKESGPGLVAPSQSLSITCTVSGFSLTAYGVHWVRQPPGKGLEWLGGIWAGGNTQSHSALMSRVSISKDISKRQVFLKMDRLQTDDSAIYYCARALFYGNFDVWGAGTTVTVSS VL: DIVMTQSQRFMSTSVGDRVSVTCKASQSVDTSVAWYQQRPGQSPEALIFSASYRYSGVPDRFTGSGSGTDFTLTISNVQSEDLAEYFCQQYNSYPYTFGGGTNLEMR"
0.0472 µg/mL,878,0.0372 µg/mL,2.88 OD450,,,,,,"51E12 (antibody, V domains shown) VH: QVQLQQSGPELVKPGASVKISCKVSGNAFSLSWMNWVKQRPGQGLEWIGRIYPGDGDSNYNGKFKGKATLTADKSSSTVFMQLSSLTSVDSAVYFCANYYGSSSWFVYWGQGTLVTVSA VL: DVVMTQTPLSLPVSLGDQASISCRSSQSLVHSYGNTYLHWYLQKPGQSPKLLIYKVSNRFSGVPDRFSGSGSGTDFTLKISRVETEDLGVYFCSQSTHFPWTFGGGTKLEIK"
0.273 µg/mL,457,0.036 µg/mL,2.87 OD450,,,,,,"45D1 (antibody, V domains shown) VH: EMQLVESGGDLVKPGGSLKLSCAVSGFTFSTYDMSWIRQTPDKRLEWVATISSGGSYTYYPDSVKGRFTISRDNAKNTLYLQMSSLQSEDTAIYYCASLNWGFDHWGQGTTLTVSS VL: not shown"
3.43 µg/mL,382,0.0317 µg/mL,2.79 OD450,,,,,,"15D10 (antibody, V domains shown) VH: QVQLQQPGAELVKPGASVKMSCKASGYTFTTYWMHWVKQRSGQGLEWIGVIDPSDSYTRYNQKFKDKATLTVDTSSSTAYMHLTSLTSEDSAVYYCTRSGIGNSFIMDYWGQGTSVTVSS VL: QVVLTQSPAIMPAFPGEKVTISCSASSSVIYMFWYQQKPGSSPKPWIYRTSNLASGVPARFTGSGSGTSYSLTISSMEAEDAATYYCQQYHSYPLTFGVGTKLELK"
,,,,,,0.131 nM,,0.085 nM,"hu-19E11 (antibody, human IgG1, kappa, V domains shown, Humanized IgG1/kappa, made in HEK-293E cells; also called 19E11人源化抗体; 人源化后的19E11) VH: QVQLVQSGAEVKKPGASVKVSCKASGFSFTGYNMNWVRQAPGQSLEWIGNIDPYYGGTTYNQKFKGRATLTVDISISTAYMELSRLRSDDTAVYFCARSVTTVGYPMDYWGQGTSVTVSS VL: DIVMTQSPDSLAVSLGERATINCKSSQSLLNSYNHKNCLAWYQQKPGQSPKLLISFASARESGVPDRFSGSGSGTDFTLTISSLQAEDVAVYFCHQHYTSPLTFGAGTKLELKR"
